One assay deals with T1, human TNFα (human, UniProt P01375 77-233).
T1 construct: also called TNF ligand; TNFα (Peprotech)
Description: assay not stated (description of the dAb in Example 11).

The target of assay [1] is T2, Recombinant human B7-1 Fc Chimera (RnD Systems, 140-B1-100), biotinylated (human, UniProt P33681 35-242, biotinylated (ECL biotinylation module, GE Healthcare, at a quarter of the kit recommended level)).
T2 construct: Bought reagent; also called biotinylated B7-1; Fc part of the bought chimera not given
T2 sequence (looked up): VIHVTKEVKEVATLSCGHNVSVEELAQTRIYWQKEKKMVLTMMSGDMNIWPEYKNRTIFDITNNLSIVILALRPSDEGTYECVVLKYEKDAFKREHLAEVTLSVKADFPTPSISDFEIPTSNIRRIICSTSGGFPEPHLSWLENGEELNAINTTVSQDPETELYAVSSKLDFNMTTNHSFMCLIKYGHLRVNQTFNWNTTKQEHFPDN
Nature of the assay: bridging ELISA: coated VEGFR2 Fc, titrated control, detection with biotinylated B7-1 Fc and ExtrAvidin peroxidase. (ELISA stands for enzyme-linked immunosorbent assay.)

The record followed here is US20120076787A1 (published 2012).

By Kd is commonly meant the free concentration of one partner at which half of the binding sites on the other are occupied at equilibrium, for simple one-to-one binding. A high value points to lower affinity.

T1 sequence (P01375 77-233 limits assumed): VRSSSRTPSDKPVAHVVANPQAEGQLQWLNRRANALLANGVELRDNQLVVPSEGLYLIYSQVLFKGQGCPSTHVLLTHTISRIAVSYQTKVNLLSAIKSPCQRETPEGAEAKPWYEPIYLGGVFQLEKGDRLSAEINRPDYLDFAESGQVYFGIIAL

B1: PEP1-5-19 (anti-TNFα dAb) (other)
VL: DIQMTQSPSSLSASVGDRVTITCRASQSIDSYLHWYQQKPGKAPKLLIYSASELQSGVPSRFSGSGSGTDFTLTISSLQPEDFATYYCQQVVWRPFTFGQGTKVEIKR
notes: Vk domain antibody (dAb), monomer; also called Anti-TNFα Vk dAb (PEP1-5-19)
In the case of B1, in the assay with human TNFα, the Kd is about 8 nM.

B2: BPC1801 (bispecific IGF1R-VEGFR2 antigen binding construct) (bispecific antibody, human IgG1, kappa)
heavy: not shown
light: DIVMTQSPLSLPVTPGEPASISCRSSQSIVQSNGDTYLEWYLQKPGQSPQLLIYRVSNRFSGVPDRFSGSGSGTDFTLKISRVEAEDVGVYYCFQGSHVPYTFGQGTKLEIKRTVAAPSVFIFPPSDEQLKSGTASVVCLLNNFYPREAKVQWKVDNALQSGNSQESVTEQDSKDSTYSLSSTLTLSKADYEKHKVYACEVTHQGLSSPVTKSFNRGEC
notes: Negative control of the VEGFR2/B7-1 bridging ELISA
For B2, the binding result in assay [1] is “no binding”.
